In PMC5156392, “Structure and Mechanism of Staphylococcus aureus TarS, the Wall Teichoic Acid β-glycosyltransferase Involved in Methicillin Resistance” (PLoS Pathogens, 2016):

Experiments:
[1] = tested on: CC(=O)N[C@H]1[C@@H](OP(=O)(O)OP(=O)(O)OC[C@H]2O[C@@H](n3ccc(=O)[nH]c3=O)[C@H](O)[C@@H]2O)O[C@H](CO)[C@@H](O)[C@@H]1O; test: purified protein; conditions: donor hydrolysis reaction without polyRboP acceptor; varied UDP-GlcNAc
[2] = molecular target: the molecule itself; test: SEC-MALS; Superdex 200 HR 10/30, 30 mM Hepes pH 7.3, 500 mM NaCl, 5% glycerol; full-length TarS run at 25 μM
crystal structure = molecular target: the molecule itself; test: crystal structure

| Molecule | Km [1] | also measured |
| --- | --- | --- |
| TarS1-349 (Staphylococcus aureus subsp. aureus Mu50) | 21 ± 2 µM |  |
| full-length TarS (TarS 1-573; wild-type) (Staphylococcus aureus subsp. aureus Mu50) | 45 ± 3 µM |  |
| Staphylococcus aureus TarS, full-length protein (1-573) (enzyme, also called full-length TarS; wild-type TarS; source: E. coli Rosetta (DE3), pET41b, purified (Heparin HP, Superdex 200)) MMKFSVIVPTYNSEKYITELLNSLAKQDFPKTEFEVVVVDDCSTDQTLQIVEKYRNKLNLKVSQLETNSGGPGKPRNVALKQAEGEFVLFVDSDDYINKETLKDAAAFIDEHHSDVLLIKMKGVNGRGVPQSMFKETAPEVTLLNSRIIYTLSPTKIYRTALLKDNDIYFPEELKSAEDQLFTMKAYLNANRISVLSDKAYYYATKREGEHMSSAYVSPEDFYEVMRLIAVEILNADLEEAHKDQILAEFLNRHFSFSRTNGFSLKVKLEEQPQWINALGDFIQAVPERVDALVMSKLRPLLHYARAKDIDNYRTVEESYRQGQYYRFDIVDGKLNIQFNEGEPYFEGIDIAKPKVKMTAFKFDNHKIVTELTLNEFMIGEGHYDVRLKLHSRNKKHTMYVPLSVNANKQYRFNIMLEDIKAYLPKEKIWDVFLEVQIGTEVFEVRVGNQRNKYAYTAETSALIHLNNDFYRLTPYFTKDFNNISLYFTAITLTDSISMKLKGKNKIILTGLDRGYVFEEGMASVVLKDDMIMGMLSQTSENEVEILLSKDIKKRDFKNIVKLNTAHMTYSLK |  | stoichiometry N [2]: 3 |
| TarS_(217-573) (domain or fragment, source: limited thermolysin proteolysis of purified full-length TarS (from E. coli Rosetta (DE3)), crystallised directly) VSPEDFYEVMRLIAVEILNADLEEAHKDQILAEFLNRHFSFSRTNGFSLKVKLEEQPQWINALGDFIQAVPERVDALVMSKLRPLLHYARAKDIDNYRTVEESYRQGQYYRFDIVDGKLNIQFNEGEPYFEGIDIAKPKVKMTAFKFDNHKIVTELTLNEFMIGEGHYDVRLKLHSRNKKHTMYVPLSVNANKQYRFNIMLEDIKAYLPKEKIWDVFLEVQIGTEVFEVRVGNQRNKYAYTAETSALIHLNNDFYRLTPYFTKDFNNISLYFTAITLTDSISMKLKGKNKIILTGLDRGYVFEEGMASVVLKDDMIMGMLSQTSENEVEILLSKDIKKRDFKNIVKLNTAHMTYSLK |  | binding result (crystal structure): binds |
